B1: OR3A1 (parent)
chain: PMYFFLGNLSVLDVGCISVTVPSM
B2: RTP4 (parent)
chain: AFGWFRCSSCQRSWASAQVQILCH

Variants of: B1
Assay: protein stability index of a GFP-peptide fusion (GPS, HEK-293T) (PSI 1-6); higher = more stable
Details: c terminus: a fixed tail appended
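Further: lentivirally expressed fusions sorted by FACS into six bins by GFP to DsRed ratio, PSI derived from sequencing read proportions per bin multiplied by bin number.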

Protein stability index: each site, then its substitutions
D13: P 3.47 | Q 2.48 | S 2.33 | V 1.73 | Y 2.55
V14: A 3.36 | C 1.99 | D 1.96 | G 3.25 | H 2.23 | L 4.23 | M 3.24 | N 3.31 | P 4.21 | Q 1.89 | R 1.39 | T 3.36 | Y 4.29
G15: A 2 | C 2.71 | D 3.7 | F 2.94 | H 3.73 | I 2.83 | K 2.02 | M 3.18 | N 2.63 | P 2.36 | R 3.7 | S 2.12 | T 2.71 | W 2.87 | Y 1.93
C16: D 3.14 | E 2.33 | F 2.85 | G 2.78 | H 2.83 | K 2.14 | M 3.08 | N 2.12 | P 2.85 | Q 2.99 | R 3.48 | S 3.15 | T 3.51 | Y 2.14
I17: A 3.4 | D 3.15 | E 2.17 | F 3.32 | H 2.75 | K 2.97 | M 2.76 | N 4.43 | P 3.39 | R 3.71 | S 3.03 | W 3.68 | Y 1.63
S18: A 3.06 | D 2.66 | E 2.7 | F 1.68 | G 2.33 | H 3.06 | I 3.52 | K 2.67 | N 3.31 | P 2.5 | Q 2.54 | R 3.87 | T 2.94 | V 1.8 | W 2.37 | Y 2.26
V19: A 1.59 | C 3.96 | D 3.51 | E 1.14 | F 3.66 | H 2.77 | I 2.3 | K 3.29 | L 2.42 | M 2.97 | P 2.55 | Q 3.27 | R 2.38 | S 3.48 | T 4.48 | W 1.96 | Y 2.93
T20: D 1.12 | E 2.71 | F 2.71 | G 1.69 | I 2.43 | L 2.99 | M 4.27 | N 2.96 | P 1.39 | Q 3.11 | V 3.39 | W 2.62 | Y 3.62
V21: C 3.1 | D 4.14 | F 1.96 | I 2.55 | K 3.59 | M 2.58 | N 3.36 | P 2.96 | Q 2.67 | R 1.86 | S 2.8 | T 2.02 | W 2.5
P22: C 2.72 | D 2.56 | E 3.69 | F 2.46 | I 3.76 | K 3.56 | L 2.95 | M 2.94 | Q 3.27 | T 2.38 | V 2.1 | W 3.15 | Y 3.21
S23: A 3.86 | C 2.56 | D 4.24 | F 1.78 | G 2.99 | H 2.76 | I 2.86 | K 2.42 | L 3.71 | M 2.67 | N 2.58 | P 2.46 | Q 3.82 | R 2.15 | T 2.84 | V 4.29 | W 2.84 | Y 4.04
M24: A 3.27 | C 2.27 | D 3.67 | F 3.27 | I 2.02 | L 1.24 | N 3.98 | P 3.41 | T 2.89 | V 3.3 | W 3.96 | Y 2.58

Variants of: B2
Assay: as above
Details: c terminus: a fixed tail appended

Protein stability index: each site, then its substitutions
A1: C 2.22 | E 1.79 | G 3.21 | H 1.78 | K 3.61

— the supplement of paper PMC10567573
